As a reminder, the Kd is the constant that tells how readily two partners part at equilibrium.

Assay [1] deals with T1, full length human CCR8 (hCCR8) (human, UniProt P51685 1-355). Put plainly: cell-based or functional assay.
The target in assay [2] is T2, recombinant hCCR8 N-terminus fused at the N-terminal of Fc region of human IgG1 (human).
T2 construct: also called recombinant huCCR8-N terminus antigen; huCCR8 N-terminus protein; not shown: Fc region of human IgG1
The assay is described as follows: SPR (Biacore 3000), Fab flowed over captured CCR8-fc; column head printed 'K0' (KD). How it is done: (§1) FIGS. 1A-1D: Binding of anti-CCR8 Fabs to recombinant huCCR8-N terminus antigen (Seq No.1). Binding affinity of anti-CCR8 Fabs for huCCR8 N-terminus protein was determined by Biacore analysis. Digested anti-CCR8 Fab fragments were flowed over captured antigen.
(§2) The affinity of the candidate antibodies for human CCR8 was assessed using SPR on a Biacore 3000 instrument. Anti-CCR8 Fab fragments were flowed over the cells in the chip with multiple blank (running buffer) injections also run to subtract system artifacts. The data were aligned, double referenced, and fit using SCRUBBER 2™ software (BioLogic Software, Pty, Australia). […] The binding of anti-CCR8 antibodies to CCR8 was then examined in HEK293 cells or P815 cells transfected with full-length hCCR8.
Background: SPR reads the build-up and loss of mass on a sensor chip optically.

Assay [3] deals with T1, full length human CCR8 (hCCR8). The assay is described as follows: cell-based or functional assay. The source holds these as a separate data set.
For assay [4], the target named is T2, recombinant hCCR8 N-terminus fused at …. The assay is described as follows: SPR, Biacore 3000; Fab flowed over captured hCCR8 N-terminus-Fc. On the procedure: as §1, §2

Positions count from the first letter of the chain named.

T2 sequence (chain, as listed by the source): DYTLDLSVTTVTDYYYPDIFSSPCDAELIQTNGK

B1: engineered anti CCR8 Fab 1047 (Fab, V domains shown)
VH: EVQLVESGGGVVQPGRSLRLSCAASGFPFEPFAMNWVRQAPGKGLEWVARIRSKANNYATYYADSVKDRFAISRDNSKSTLYLLMHSLRFEDTAVYYCVRGRENNYGYAMDYWGQGTTVTVSS
VL: DVVMTQSPPSLPVTLGQSASISCRSSQSLLHSNGITYLYWFLQRPGQSPRLLIYRMSNLASGVPDRFSGSGSGTDFTLRISRVEAEDVGVYYCMQHLTYPFTFGIGTKVEIK
notes: Fab made by digesting the antibody; also called Fab fragment of 1047
With B1, the “average IC50 of inhibition of CCL1-mediated chemotaxis of hCCR8 P815 cells” value (“average IC50 of inhibition … of hCCR8 P815 cells” for short) in assay [1] turned out to be 1090 pM. For the same molecule, the Kd in assay [2] was found to be 0.876 nM.

B2: Fab fragment of anti-CCR8 antibody 1434 (Fab, V domains shown)
VH: B1 VH with V11L, R16G, A49G, A71T, N76D, S79R, T80S, H86N, R89K
VL: B1 VL with P9L, S18P, L42Q, L51R, R79K
Turning to B2, the “average IC50 of inhibition … of hCCR8 P815 cells” value in assay [1] was 414 pM.

B3: engineered anti-CCR8 Fab 953 (Fab, V domains shown)
VH: B1 VH with N105R
VL: B1 VL
notes: Fab made by digesting the antibody
B3: in assay [1], the “average IC50 of inhibition … of hCCR8 P815 cells” value came out at 150 pM. The Kd in assay [2] is 0.385 nM.

B4: anti-CCR8 antibody 1187 (antibody, V domains shown)
VH: B1 VH with S79R
VL: B1 VL
For the molecule B4, the “IC50, inhibition of chemotaxis of hCCR8-transfected P815 cells to 1 nM CCL1 (intact IgG1, Cell Titer Glo)” value in assay [3] worked out at 4.03 ng/mL.

B5: Fab fragment of anti-CCR8 antibody 1187 (Fab, V domains shown)
VH: B1 VH with S79R
VL: B1 VL
notes: also called Fab 51
As to B5, in assay [1], the “IC50 of inhibition of CCL1-mediated chemotaxis of hCCR8 P815 cells” value was approximately 35 ng/mL and the “average IC50 of inhibition … of hCCR8 P815 cells” value is 254 pM. In assay [4], the Kd stood at 0.647 nM and the “fold improvement of binding affinity against the original anti-CCR8 antibody candidate” value was found to be 2.5 fold.
